Drawing on patent US7262289, this text covers reduction of peak current amplitude for one substance.

This experiment addresses KCNQ2+KCNQ3 channel (human KCNQ2 co-expressed with human KCNQ3) (human) (UniProt O43526). In words: cell-based or functional assay.

KCNQ2+KCNQ3 channel (human KCNQ2 co-expressed with human KCNQ3) (human), sequence (O43526 other isoform, or with tags, fused parts or gaps, chain 1 of 2): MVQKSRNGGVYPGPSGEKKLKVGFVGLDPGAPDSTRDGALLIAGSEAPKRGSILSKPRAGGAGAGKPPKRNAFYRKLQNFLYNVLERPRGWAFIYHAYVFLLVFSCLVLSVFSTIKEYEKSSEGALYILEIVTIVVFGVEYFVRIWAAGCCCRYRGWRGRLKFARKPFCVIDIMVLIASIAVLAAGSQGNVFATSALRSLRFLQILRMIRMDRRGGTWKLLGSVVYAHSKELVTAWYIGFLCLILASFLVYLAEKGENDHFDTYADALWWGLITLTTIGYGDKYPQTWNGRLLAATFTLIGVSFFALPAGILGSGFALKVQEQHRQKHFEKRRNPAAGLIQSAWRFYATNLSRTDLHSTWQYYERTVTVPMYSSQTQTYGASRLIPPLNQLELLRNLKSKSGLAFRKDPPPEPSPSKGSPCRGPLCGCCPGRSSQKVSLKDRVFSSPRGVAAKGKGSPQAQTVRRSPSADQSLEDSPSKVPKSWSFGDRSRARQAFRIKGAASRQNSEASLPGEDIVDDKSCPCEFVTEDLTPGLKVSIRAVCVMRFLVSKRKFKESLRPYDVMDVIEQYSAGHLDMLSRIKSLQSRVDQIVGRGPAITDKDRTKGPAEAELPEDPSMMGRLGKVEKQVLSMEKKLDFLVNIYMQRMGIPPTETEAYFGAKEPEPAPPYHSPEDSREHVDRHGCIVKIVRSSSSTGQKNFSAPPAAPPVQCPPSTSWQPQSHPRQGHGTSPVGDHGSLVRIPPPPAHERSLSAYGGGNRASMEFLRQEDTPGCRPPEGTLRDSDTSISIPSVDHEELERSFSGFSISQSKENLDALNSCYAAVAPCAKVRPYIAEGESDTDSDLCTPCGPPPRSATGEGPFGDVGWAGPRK
KCNQ2+KCNQ3 channel (human KCNQ2 co-expressed with human KCNQ3) (human), sequence (O43526 other isoform, or with tags, fused parts or gaps, chain 2 of 2): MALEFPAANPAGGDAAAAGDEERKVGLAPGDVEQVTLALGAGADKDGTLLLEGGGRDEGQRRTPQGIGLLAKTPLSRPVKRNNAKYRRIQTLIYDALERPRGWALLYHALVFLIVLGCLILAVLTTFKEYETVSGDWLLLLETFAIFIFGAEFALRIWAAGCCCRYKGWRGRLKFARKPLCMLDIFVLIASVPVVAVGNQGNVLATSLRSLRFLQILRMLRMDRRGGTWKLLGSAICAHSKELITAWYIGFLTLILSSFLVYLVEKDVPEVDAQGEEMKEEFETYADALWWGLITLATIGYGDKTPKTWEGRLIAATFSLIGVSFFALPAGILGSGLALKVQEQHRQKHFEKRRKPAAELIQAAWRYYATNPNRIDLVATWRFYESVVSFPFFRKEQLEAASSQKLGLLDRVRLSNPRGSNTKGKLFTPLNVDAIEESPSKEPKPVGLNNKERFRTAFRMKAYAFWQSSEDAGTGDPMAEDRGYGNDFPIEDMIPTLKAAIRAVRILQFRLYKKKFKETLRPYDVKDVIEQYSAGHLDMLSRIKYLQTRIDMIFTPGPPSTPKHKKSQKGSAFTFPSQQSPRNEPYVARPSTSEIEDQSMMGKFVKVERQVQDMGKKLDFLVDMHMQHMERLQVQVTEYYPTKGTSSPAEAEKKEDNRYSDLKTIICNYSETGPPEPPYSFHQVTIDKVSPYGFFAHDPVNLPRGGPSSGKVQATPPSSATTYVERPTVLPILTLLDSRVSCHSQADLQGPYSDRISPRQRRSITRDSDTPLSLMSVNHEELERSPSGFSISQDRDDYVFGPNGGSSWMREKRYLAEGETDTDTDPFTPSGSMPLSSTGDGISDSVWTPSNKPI

The substance KCNE1 returned a reduction of peak current amplitude at +30 mV in oocytes co-expressing KCNE1 of 62%.
